Reference: patent US20200325208A1
Read-outs that look alike come from different tables or passages of the source.

What was measured:
Test in all cases: ELISA, antigen captured by anti-His antibody on plate, HRP anti-IgG Fc detection
[1] = target: Human VEGF121/VEGF-A protein (human VEGF 121 isoform) with 6-His tag (human) (UniProt P15692)
[2] = target: Human VEGF121/VEGF-A protein (human VEGF 121 isoform) with 6-His tag (human) (UniProt P15692); remark: listed apart in the source
[3] = target: Human VEGF121/VEGF-A protein (human VEGF 121 isoform) with 6-His tag (human) (UniProt P15692); remark: listed apart in the source
[4] = target: Human VEGF121/VEGF-A protein (human VEGF 121 isoform) with 6-His tag (human) (UniProt P15692); remark: listed apart in the source

Sequence of Human VEGF121/VEGF-A protein (human VEGF 121 isoform) with 6-His tag (human) (P15692 other isoform, or with tags, fused parts or gaps limits assumed): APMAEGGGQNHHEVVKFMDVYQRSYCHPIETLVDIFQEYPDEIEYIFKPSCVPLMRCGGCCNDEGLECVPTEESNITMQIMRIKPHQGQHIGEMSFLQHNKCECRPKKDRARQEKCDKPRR
Sequence of Aflibercept (VEGFR-Fc) (Fc fusion) (chain): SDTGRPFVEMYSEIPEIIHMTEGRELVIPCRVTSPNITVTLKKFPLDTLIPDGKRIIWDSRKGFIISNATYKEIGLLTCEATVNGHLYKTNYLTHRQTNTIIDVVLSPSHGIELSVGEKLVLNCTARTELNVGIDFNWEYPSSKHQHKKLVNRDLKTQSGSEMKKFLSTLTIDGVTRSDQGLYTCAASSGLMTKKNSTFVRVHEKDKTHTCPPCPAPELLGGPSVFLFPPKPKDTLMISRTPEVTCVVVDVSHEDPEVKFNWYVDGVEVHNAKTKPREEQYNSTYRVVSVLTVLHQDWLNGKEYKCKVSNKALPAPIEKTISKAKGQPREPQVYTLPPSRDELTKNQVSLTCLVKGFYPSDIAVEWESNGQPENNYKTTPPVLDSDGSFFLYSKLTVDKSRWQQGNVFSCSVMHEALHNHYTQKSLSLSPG

- EC50 [1]: 12.2 nM
- EC50 [2]: 15.3 nM
- EC50 [3]: 21.4 nM
- EC50 [4]: 10.5 nM
Substance: Aflibercept (VEGFR-Fc) (Fc fusion)
